Laboratory results from PMC6764996.

Tests used:
[1] = target: full-length human DNA polymerase θ (Polθ) (human) (UniProt O75417); test: scanning force microscopy (volume measurements); 10 nM protein with 20 nM 26 nt ssDNA; 25 mM Tris-HCl pH 8.8, 30 mM NaCl, 10 mM MgCl2, 2 mM ATP, 0.01% NP-40, 1 mM DTT; 37 °C, 30 min; deposited on mica; volumes normalised to the monomer's volume
[2] = target: full-length human DNA polymerase θ (Polθ) (human) (UniProt O75417); test: negative staining electron microscopy (single particles); 200 nM protein pre-incubated with 2 μM 26 nt ssDNA; 25 mM Tris-HCl pH 8.8, 1 mM DTT, 10 mM MgCl2, 2 mM ATP; 37 °C, 30 min; 2% uranyl acetate
[3] = target: full-length human DNA polymerase θ (Polθ) (human) (UniProt O75417); test: negative staining electron microscopy (single particles); 200 nM protein without ssDNA; 25 mM Tris-HCl pH 8.8, 1 mM DTT, 10 mM MgCl2, 2 mM ATP; 37 °C, 30 min; applied to lacey carbon grids, 2% uranyl acetate

percent of Polθ as tetramers or larger (with ssDNA) [1]: 62% | fold increase in large > 1000 Å multimers with ssDNA against without ssDNA [2]: 9 fold | percent of Polθ as large (> 1000 Å) multimers (without ssDNA) [3]: 3%
Substance: full-length human DNA polymerase θ (Polθ), O75417 1-2590
